In patent publication US9081020B2, “Mutant proteins and methods for selecting them” (Heptares Therapeutics Limited, priority 2008, dated 2015):
Positions count from the first letter of the chain named. Numbers in names are those of the source. Where “and” joins values, the source holds several entries; their conditions need not be identical. Equal values may be shown once. Read-outs that look alike come from different tables or passages of the source.

What was measured:
M1 mAChR [1] = type: physicochemical; details: for % 3H-NMS retained BOG / % loss/wt / mean % retained: 0.82% BOG; for % 3H-NMS retained BOG / % loss/wt / mean % retained / Stability (βOG in-situ) % L65A control: 4° C., 3 h; for % 3H-NMS retained BOG: whole E. coli BL21 cells, single culture; for % loss/wt: % loss relative to wild-type control; for mean % retained: mean of the cultures; for Stability (βOG in-situ) % L65A control: % loss(control)/% loss(mutant), mean±SEM of 3
Method: (§1) This concentration was determined by analysing wild-type M1 mAChRs expressed in the inner cell membranes of intact E. Coli strain BL21 cells. The cells were pre-labelled with the radiolabelled antagonist 3H—N-methyl scopolamine and resuspended to a pre-determined cell density (Absorbance at 600 nm=2.0) in a chosen buffer (in this case 50 mM sodium phosphate, 1 mM EDTA, pH 7.5). […] The wild-type M1 mAChRs were titrated by the addition of increasing concentrations of beta octyl glucoside dissolved in the same buffer for different times (e.g. 1 h, 2 h, 3 h, 5 h, 15 h) and at different temperatures (e.g. 4° C., 15° C.). The loss of specifically-bound radioligand was then measured after recovering the cells by centrifugation (15000×g, 15 min.). In the example, the centrifugation step was performed on duplicate 1 ml aliquots of the cells. The experiment was repeated 3 times. […] It will be appreciated that the cell density, detergent concentration and other parameters of the assay may be varied to adjust the loss of activity as appropriate.
(§2) (a) A state of in-situ destabilisation of a particular membrane protein in a particular cell membrane as a result of the addition of a particular concentration of a particular detergent, can be defined by the loss of the characteristic specific ligand binding activity of the membrane protein for a particular ligand of interest in the presence of a defined concentration of a particular detergent molecule or other solubilising agent.
(§3) A preferred version of the assay is destabilisation of a membrane protein-ligand complex in a detergent-enriched membrane. The membrane protein, either in a membrane preparation, or in intact cells in-vivo or ex-vivo, is pre-incubated with a labelled version of the ligand, the label, for instance, being a radioactive label, or a fluorescent label, and the binding step preferably being allowed to proceed to equilibrium, defined as the achievement of a time-invariant level of binding. To define membrane protein-independent, or non-specific, binding the binding step is performed with the addition of a second non-labelled ligand, called the competing ligand, having an appropriate membrane protein-specific pharmacology, at a concentration sufficient fully to occupy the binding sites of the membrane protein and thereby exclude the binding of the labelled ligand. The difference between the binding of the labelled ligand in the absence and presence of the competing ligand is defined as the specific binding of the labelled ligand. Measurement of binding requires a suitable method for separating and measuring bound ligand. Characteristically, this involves centrifugation of intact cells or membranes for a time and at a centrifugal force adequate to pellet them (for instance, 15000×g for 15 min in the case of E. coli cells, or 100,000×g for plasma membrane preparations), or filtration of a membrane suspension e.g. through a suitable filter paper such as glass fibre paper e.g. GF-B or GF-C followed by counting of radioactivity. Alternatively, it might involve the measurement of an optical signal such as enhancement of fluorescence emission in the case of fluorescent ligands.
(§4) To perform the in-situ destabilisation assay, a pre-determined concentration of the detergent or other destabilising agent of choice is mixed with a membrane or cell suspension containing the pre-labelled membrane protein in an appropriate buffer composition at a particular temperature and for a particular time, determined as described below.

M1 mAChR [2] = target: T1, M1 mAChR (Rattus norvegicus, UniProt P08482, DEL225-353/L65A); type: physicochemical; details: after in-situ destabilisation in BOG or DDM
T1 construct: (His)9QGG (C); expressed in transfected cells; host or cells: E. coli BL21 (whole cells)
T1 sequence (P08482 with tags, fused parts or gaps L65A/DEL225-353): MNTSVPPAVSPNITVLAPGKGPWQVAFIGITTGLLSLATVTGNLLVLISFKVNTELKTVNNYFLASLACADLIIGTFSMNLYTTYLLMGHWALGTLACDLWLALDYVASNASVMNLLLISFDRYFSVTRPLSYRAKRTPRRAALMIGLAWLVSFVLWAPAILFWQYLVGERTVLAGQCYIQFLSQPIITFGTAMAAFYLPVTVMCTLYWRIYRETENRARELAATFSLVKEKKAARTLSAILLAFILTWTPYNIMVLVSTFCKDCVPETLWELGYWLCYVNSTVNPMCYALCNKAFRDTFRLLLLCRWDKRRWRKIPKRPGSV
Method: as §1, §2, §3, §4

M1 mAChR [3] = test: thermal stability (Tm) of partially purified [3H]NMS-labelled receptors in 0.1% dodecyl-β-maltoside; type: physicochemical, rat; details: 0.1% DDM; for Tm (0.1% DDM): incubation time 30 min, mean±range/SEM; for thermal stability (Tm) relative to L65A, in words: partially purified mutants
Method: For measurements of thermal melting temperature (Tm), [3H]NMS-labelled receptors were partially purified by immobilized metal ion affinity chromatography from cultures grown from single clones expressed in E. Coli BL21 cells, essentially as described in Hulme and Curtis, 1998 (21). Tm measurements were carried out after gel-filtration of partially purified receptors into 50 mM sodium phosphate, 5 mM β-mercaptoethanol and 0.1% dodecyl-β-maltoside (DDM), using an incubation time of 30 min. Values were tabulated as mean±range/SEM of 2 or more independent measurements (Table 3).

B1: L65A: M1 mAChR mutant L65A (TM2); background and internal control in Example 3 (protein, UniProt P11229 1-460, looked up, variant L65A)
Muscarinic acetylcholine …: MNTSAPPAVSPNITVLAPGKGPWQVAFIGITTGLLSLATVTGNLLVLISFKVNTELKTVNNYFLASLACADLIIGTFSMNLYTTYLLMGHWALGTLACDLWLALDYVASNASVMNLLLISFDRYFSVTRPLSYRAKRTPRRAALMIGLAWLVSFVLWAPAILFWQYLVGERTVLAGQCYIQFLSQPIITFGTAMAAFYLPVTVMCTLYWRIYRETENRARELAALQGSETPGKGGGSSSSSERSQPGAEGSPETPPGRCCRCCRAPRLLQAYSWKEEEEEDEGSMESLTSSEGEEPGSEVVIKMPMVDPEAQAPTKQPPRSSPNTVKRPTKKGRDRAGKGQKPRGKEQLAKRKTFSLVKEKKAARTLSAILLAFILTWTPYNIMVLVSTFCKDCVPETLWELGYWLCYVNSTINPMCYALCNKAFRDTFRLLLLCRWDKRRWRKIPKRPGSVHRTPSRQC
With B1 as the molecule, how does the “% 3H-NMS retained BOG” value (M1 mAChR [1]; listed as L65A 1) read?
The value was 83% and 79%.

What about the “% 3H-NMS retained BOG” value (M1 mAChR [1]; listed as L65 A 2) of the same molecule?
The value was 86%.

What about the “% 3H-NMS retained BOG” value (M1 mAChR [1]; listed as L65A 2) of the same molecule?
Its value is 79%.

What about the “% loss/wt” value (M1 mAChR [1]; listed as L65A 1) of the same molecule?
The value was 0.29 and 0.4.

And the mean % retained (M1 mAChR [1]; listed as L65A 1)?
The mean % retained was 84.5% and 79%.

What about the “Stability (βOG in-situ) % L65A control” value (M1 mAChR [1]; 0.82% β-octyl glucoside) of the same molecule?
Its value is 100 % L65A control.

And the “enhanced stability relative to wild-type (retention of bound 3H-NMS)” value (M1 mAChR [2])?
The value was 2 fold.

What about the “Tm (0.1% DDM)” value (M1 mAChR [3]) of the same molecule?
Its value is 29.3 ± 0.4 °C.

B2: L65A/Y208A: M1 mAChR double mutant, Ala mutation on L65A background (protein, UniProt P11229 1-460, looked up, variant L65A Y208A)
Muscarinic acetylcholine …: B1 Muscarinic acetylcholine … with Y208A
For B2, which “Stability (βOG in-situ) % L65A control” value (M1 mAChR [1]; 0.82% β-octyl glucoside) is on record?
Its value is 100 ± 7 % L65A control.

And the “Tm (0.1% DDM)” value (M1 mAChR [3])?
Its value is 29.6 ± 0.5 °C.

B3: L65A/L402A: M1 mAChR double mutant, Ala mutation on L65A background (protein, UniProt P11229 1-460, looked up, variant L65A L402A)
Muscarinic acetylcholine …: B1 Muscarinic acetylcholine … with L402A
Which results are given for B3?
Stability (βOG in-situ) % L65A control (M1 mAChR [1]; 0.82% β-octyl glucoside): 105 ± 10 % L65A control; Tm (0.1% DDM) (M1 mAChR [3]): 30.1 ± 0.5 °C

B4: L65A/C205A: M1 mAChR double mutant, Ala mutation on L65A background (protein, UniProt P11229 1-460, looked up, variant L65A C205A)
Muscarinic acetylcholine …: B1 Muscarinic acetylcholine … with C205A
Which “Stability (βOG in-situ) % L65A control” value (M1 mAChR [1]; 0.82% β-octyl glucoside) does the source give for B4 here?
The value was 106 ± 5 % L65A control.

What about the “Tm (0.1% DDM)” value (M1 mAChR [3]) of the same molecule?
Its value is 28.1 ± 0.1 °C.

B5: L65A/L144A: M1 mAChR double mutant, Ala mutation on L65A background (protein, UniProt P11229 1-460, looked up, variant L65A L144A)
Muscarinic acetylcholine …: B1 Muscarinic acetylcholine … with L144A
B5 was tested. Which “Stability (βOG in-situ) % L65A control” value (M1 mAChR [1]; 0.82% β-octyl glucoside) did it give?
The value was 125 ± 16 % L65A control.

What about the “Tm (0.1% DDM)” value (M1 mAChR [3]) of the same molecule?
Its value is 29.8 ± 1.0 °C.

B6: L65V: M1 mAChR mutant L65V selected from random mutagenesis screen (protein)
chain: B1 Muscarinic acetylcholine … with A65V
What does the source list for B6?
% 3H-NMS retained BOG (M1 mAChR [1]; listed as L65V 1): 81%; % 3H-NMS retained BOG (M1 mAChR [1]; listed as L65V 2): 95%; % loss/wt (M1 mAChR [1]): 0.23; mean % retained (M1 mAChR [1]): 88%; Stability (βOG in-situ) % L65A control (M1 mAChR [1]; 0.82% β-octyl glucoside): 115 % L65A control; Tm (0.1% DDM) (M1 mAChR [3]): 32.6 ± 0.4 °C; thermal stability (Tm) relative to L65A, in words (M1 mAChR [3]): more stable than L65A

B7: L65A/T202A: M1 mAChR double mutant, Ala mutation on L65A background (protein, UniProt P11229 1-460, looked up, variant L65A T202A)
Muscarinic acetylcholine …: B1 Muscarinic acetylcholine … with T202A
B7 was tested. Which “Stability (βOG in-situ) % L65A control” value (M1 mAChR [1]; 0.82% β-octyl glucoside) did it give?
The value was 94 ± 1 % L65A control.

What about the “Tm (0.1% DDM)” value (M1 mAChR [3]) of the same molecule?
The value was 31.1 ± 0.2 °C.

What about the “thermal stability (Tm) relative to L65A, in words” value (M1 mAChR [3]) of the same molecule?
Its value is “marginal increase”.

B8: L65F: M1 mAChR mutant L65F, homologous to M4 mAChR (protein)
chain: B1 Muscarinic acetylcholine … with A65F
For B8, which “Stability (βOG in-situ) % L65A control” value (M1 mAChR [1]; 0.82% β-octyl glucoside) is on record?
Its value is 74 ± 16 % L65A control.

What about the “Tm (0.1% DDM)” value (M1 mAChR [3]) of the same molecule?
Its value is 30.2 ± 0.5 °C.

B9: L65A/Y82A: M1 mAChR double mutant, Ala mutation on L65A background (protein, UniProt P11229 1-460, looked up, variant L65A Y82A)
Muscarinic acetylcholine …: B1 Muscarinic acetylcholine … with Y82A
Which “Stability (βOG in-situ) % L65A control” value (M1 mAChR [1]; 0.82% β-octyl glucoside) does the source give for B9 here?
The value was 175 ± 61 % L65A control.

What about the “in-situ stability relative to L65A, in words” value (M1 mAChR [1]; 0.82% β-octyl glucoside, L65A background) of the same molecule?
Its value is “enhanced stability in 2 out of 3 experiments”.

And the “Tm (0.1% DDM)” value (M1 mAChR [3])?
Its value is 25.3 ± 0.5 °C.

And the “thermal stability (Tm) relative to L65A, in words” value (M1 mAChR [3])?
Its value is “Reduced stability”.
